Consider 11 molecules from US20230012273A1 (Boehringer Ingelheim, published 2023).

Common to all, as to assay: SPR, Ab captured, ECD-His analyte
For orientation: SPR reads the build-up and loss of mass on a sensor chip optically.

Test [1] addresses T1, human SIRPαV1 extracellular domain + His-tag (NP_542970.1) (human, UniProt P78324 31-373).
T1 construct: also called hSIRPαV1; HuSIRPαV1
As for the experimental part:
(§1) The binding affinity of anti-SIRPα antibodies to the various SIRPα analytes is determined by surface plasmon resonance (SPR) using a ProteOn XPR36 (Bio-Rad). The running buffer for this experiment and all dilutions (except where stated) are done in 1×HBS-EP+. […] The sensorchip is deactivated with 1M ethanolamine HCl for 420 sec at a flowrate of 10 μl/min.
(§2) The analyte is injected over the captured antibody for 300 sec at a flowrate of 30 μl/min. The dissociation is done for 600 sec. Two-fold serial dilutions of each SIRP protein (Extracellular Domain+His-Tag) are injected as analyte with the highest concentrations indicated in table 36 below.

Test [2] addresses T2, human SIRPαV2 extracellular domain + His-tag (CAA71403.1) (human, UniProt P78324 31-373).
T2 construct: also called hSIRPαV2; HuSIRPαV2
How it is done:
as §1, §2

In test [3] the target is T3, human SIRPβ1 extracellular domain + His-tag (NP_006056.2) (human, UniProt O00241 30-371).
T3 construct: also called hSIRPβ1; HuSIRPβ1
As for the experimental part: as §1, §2

The target in test [4] is T4, human SIRPβL/SIRPβ1v3 extracellular domain + His-tag (NP_001129316.1) (human, UniProt Q5TFQ8 30-371).
T4 construct: also called hSIRPβ1v3; HuSIRPβ1v3
How it is done:
as §1, §2

Test [5] concerns the target T5, human SIRPγ extracellular domain + His-tag (NP_061026.2) (human, UniProt Q9P1W8 29-360).
T5 construct: also called hSIRPγ; HuSIRPγ
As for the experimental part: as §1, §2

T3 sequence (O00241 other isoform, or with tags, fused parts or gaps): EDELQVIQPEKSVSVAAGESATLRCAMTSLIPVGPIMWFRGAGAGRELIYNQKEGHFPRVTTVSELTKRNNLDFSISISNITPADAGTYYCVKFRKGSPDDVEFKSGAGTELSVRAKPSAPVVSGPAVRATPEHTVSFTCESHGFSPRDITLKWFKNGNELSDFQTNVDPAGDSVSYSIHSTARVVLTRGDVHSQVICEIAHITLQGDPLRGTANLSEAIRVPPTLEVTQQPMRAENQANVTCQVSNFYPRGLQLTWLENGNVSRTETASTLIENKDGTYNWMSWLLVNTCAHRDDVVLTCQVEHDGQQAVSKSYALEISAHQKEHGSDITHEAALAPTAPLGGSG
T5 sequence (Q9P1W8 29-360): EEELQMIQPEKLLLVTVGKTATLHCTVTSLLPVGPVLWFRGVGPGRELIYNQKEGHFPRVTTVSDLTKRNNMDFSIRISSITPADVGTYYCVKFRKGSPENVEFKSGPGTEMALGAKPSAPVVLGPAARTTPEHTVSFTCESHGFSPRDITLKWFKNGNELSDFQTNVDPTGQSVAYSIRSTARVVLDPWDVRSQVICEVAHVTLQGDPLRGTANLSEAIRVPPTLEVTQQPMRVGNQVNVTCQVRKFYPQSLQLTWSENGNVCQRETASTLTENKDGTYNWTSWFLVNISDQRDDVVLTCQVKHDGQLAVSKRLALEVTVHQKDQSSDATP
T4 sequence (Q5TFQ8 other isoform, or with tags, fused parts or gaps): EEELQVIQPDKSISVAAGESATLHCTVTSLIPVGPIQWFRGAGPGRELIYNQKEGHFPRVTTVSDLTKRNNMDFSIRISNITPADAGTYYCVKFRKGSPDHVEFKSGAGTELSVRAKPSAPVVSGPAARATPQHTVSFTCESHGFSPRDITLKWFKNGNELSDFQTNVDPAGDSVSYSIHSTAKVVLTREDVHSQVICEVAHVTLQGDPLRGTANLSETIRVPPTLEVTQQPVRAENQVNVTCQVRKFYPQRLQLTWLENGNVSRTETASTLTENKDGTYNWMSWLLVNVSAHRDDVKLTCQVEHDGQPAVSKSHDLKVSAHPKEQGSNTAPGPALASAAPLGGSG
T1 sequence (P78324 other isoform, or with tags, fused parts or gaps): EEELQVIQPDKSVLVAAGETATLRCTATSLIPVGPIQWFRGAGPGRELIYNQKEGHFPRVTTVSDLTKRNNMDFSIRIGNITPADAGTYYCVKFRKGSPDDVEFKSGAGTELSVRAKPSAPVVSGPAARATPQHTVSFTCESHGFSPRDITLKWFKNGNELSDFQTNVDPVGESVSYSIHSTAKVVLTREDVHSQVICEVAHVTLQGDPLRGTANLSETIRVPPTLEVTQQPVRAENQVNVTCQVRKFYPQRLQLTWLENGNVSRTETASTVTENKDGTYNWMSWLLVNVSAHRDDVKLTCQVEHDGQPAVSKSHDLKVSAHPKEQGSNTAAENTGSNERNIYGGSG
T2 sequence (P78324 other isoform, or with tags, fused parts or gaps): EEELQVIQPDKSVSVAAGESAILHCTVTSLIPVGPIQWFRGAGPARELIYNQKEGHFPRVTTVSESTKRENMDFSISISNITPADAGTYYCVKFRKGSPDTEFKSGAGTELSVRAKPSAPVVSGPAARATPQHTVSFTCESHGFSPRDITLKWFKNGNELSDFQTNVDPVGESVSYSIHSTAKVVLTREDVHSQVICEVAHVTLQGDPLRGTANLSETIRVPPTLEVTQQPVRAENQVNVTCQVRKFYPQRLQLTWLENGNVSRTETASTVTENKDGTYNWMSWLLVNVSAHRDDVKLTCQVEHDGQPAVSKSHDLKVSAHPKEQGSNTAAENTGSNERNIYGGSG

B1: Antibody E2 (antibody, human IgG1, kappa, L234A L235A, V domains shown)
VH: QVQLQESGPGLVRPSETLSLTCTVSGGSIRNYYWSWIRQPPGKGLEWIGFIYYNGRTFYNPSLKSRVTISLDMSINQFSLKMTSVTAADTAVYYCARVRAYSGIGLDGTDVWGQGTTVTVSS
VL: DIVMTQSPLSLPVTPGEPASISCKSSQSLLYSNGYAYLDWYLQRPGQSPQLLIYLGSNRASGVPDRFSGSGSGTDFTLKISRVEAEDVGVYYCMQALQTPLTFGGGTKVEIKR
On to B1, for which the results for the dissociation constant Kd in test [1], in test [2] and in test [4] were 0.912 nM, 0.687 nM and 1.93 nM, respectively. The binding result in test [3] and in test [5] was “no binding (tested: 1000 nM)” each time.

B2: Antibody E9 (antibody, human IgG1, kappa, L234A L235A, V domains shown)
VH: QVQLQESGPGLVRPSETLSLTCTVSGGSIRNYYWSWIRQPPGKGLEWIGFIYYNGRTFYNPSLKSRVTISLDMSINQFSLKMTSVTAADTAVYYCARVRAYSGIGLDGTDVWGQGTTVTVSS
VL: DIVMTQSPLSLPVTPGEPASISCKSSQSLLYSNAYNYLDWYLQRPGQSPQLLIYLGSNRASGVPDRFSGSGSGTDFTLKISRVEAEDVGVYYCMQALQTPLTFGGGTKVEIKR
With B2, the Kd came to 1.22 nM in test [1], 0.941 nM in test [2] and 3.16 nM in test [4]. In addition, the binding result in test [3] and in test [5] was “no binding (tested: 1000 nM)” throughout.

B3: Antibody E17 (antibody, human IgG1, kappa, L234A L235A, V domains shown)
VH: QVQLQESGPGLVRPSETLSLTCTVSGGSIRNYYWSWIRQPPGKGLEWMGFIYDNGRTFYNPSLKSRVTISLDMSMNQFSLKMTSVTAADTAVYYCARVRAYSGIGLDGTDVWGQGTTVTVSS
VL: DIVMTQSPLSLPVTPGEPASISCKSSQSLLYSNAYNYLDWYLQRPGQSPQLLIYLGSNRASGVPDRFSGSGSGTDFTLKISRVEAEDVGVYYCMQALQTPLTFGGGTKVEIKR
As to B3, the results for the dissociation constant Kd in test [1], in test [2] and in test [4] were 2.36 nM, 0.797 nM and 5.32 nM, respectively. Further, the binding result in test [3] and in test [5] was “no binding (tested: 1000 nM)” in each case.

B4: Antibody E8 (antibody, human IgG1, kappa, L234A L235A, V domains shown)
VH: QVQLQESGPGLVRPSETLSLTCTVSGGSIRNYYWSWIRQPPGKGLEWMGFIYDNGRTFYNPSLKSRVTISLDMSMNQFSLKMTSVTAADTAVYYCARVRAYSGIGLDGTDVWGQGTTVTVSS
VL: DIVMTQSPLSLPVTPGEPASISCKSSQSLLYSNGYAYLDWYLQRPGQSPQLLIYQGSNRASGVPDRFSGSGSGTDFTLKISRVEAEDVGVFYCMQALQTPLTFGGGTKVEIKR
Take B4: the equilibrium dissociation constant (Kd) in test [1] amounted to 1.21 nM; in test [2], 0.542 nM; in test [3], 2420 nM; in test [4] it was 2.58 nM. Moreover, the binding result in test [5] is listed as “no binding (tested: 1000 nM)”.

B5: Antibody E5 (antibody, human IgG1, kappa, L234A L235A, V domains shown)
VH: QVQLQESGPGLVRPSETLSLTCTVSGGSIRNYYWSWIRQPPGKGLEWIGFIYYNGRTFYNPSLKSRVTISLDKSKNQFSLKMTSVTAADTAVYYCARVRAYSGIGLDGTDVWGQGTTVTVSS
VL: DIVMTQSPLSLPVTPGEPASISCKSSQSLLYSNGYAYLDWYLQRPGQSPQLLIYQGSNRASGVPDRFSGSGSGTDFTLKISRVEAEDVGVFYCMQALQTPLTFGGGTKVEIKR
As for B5, the equilibrium dissociation constant (Kd) in test [1] was 1.02 nM; in test [2], 0.873 nM; in test [3], 1380 nM; in test [4] it was 2.72 nM. In addition, the binding result in test [5] was “no binding (tested: 1000 nM)”.

B6: Antibody E7 (antibody, human IgG1, kappa, L234A L235A, V domains shown)
VH: QVQLQESGPGLVRPSETLSLTCTVSGGSIRNYYWSWIRQPPGKGLEWIGFIYYNGRTFYNPSLKSRVTISLDTSKNQFSLKMTSVTAADTAVYYCARVRAYSGIGLDGTDVWGQGTTVTVSS
VL: DIVMTQSPLSLPVTPGEPASISCKSSQSLLYSNGYAYLDWYLQRPGQSPQLLIYQGSNRASGVPDRFSGSGSGTDFTLKISRVEAEDVGVFYCMQALQTPLTFGGGTKVEIKR
Turning to B6, the equilibrium dissociation constant (Kd) in test [1] came out at 1.2 nM; in test [2] it was 1.18 nM; in test [3], 874 nM; in test [4] it was 2.21 nM. Besides, in test [5], the binding result was “no binding (tested: 1000 nM)”.

B7: Antibody E13 (antibody, human IgG1, kappa, L234A L235A, V domains shown)
VH: QVQLQESGPGLVRPSETLSLTCTVSGGSIRNYYWSWIRQPPGKGLEWIGFIYYTGRTFYNPSLKSRVTISLDMSINQFSLKMTSVTAADTAVYYCARVRAYSGIGLDGTDVWGQGTTVTVSS
VL: DIVMTQSPLSLPVTPGEPASISCKSSQSLLYSNGYAYLDWYLQRPGQSPQLLIYQGSNRASGVPDRFSGSGSGTDFTLKISRVEAEDVGVFYCMQALQTPLTFGGGTKVEIKR
In the case of B7, the Kd in test [1] was 1.7 nM; in test [2] it was 0.69 nM; in test [4] it was 4.17 nM. In addition, the binding result in test [3] and in test [5] was “no binding (tested: 1000 nM)” throughout.

B8: Antibody E14 (antibody, human IgG1, kappa, L234A L235A, V domains shown)
VH: QVQLQESGPGLVRPSETLSLTCTVSGGSIRNYYWSWIRQPPGKGLEWIGFIYYNGRTFYNPSLKSRVTISLDKSKNQFSLKMTSVTAADTAVYYCARVRAYSGIGLDGTDVWGQGTTVTVSS
VL: DIVMTQSPLSLPVTPGEPASISCKSSQSLLYSNAYNYLDWYLQRPGQSPQLLIYLGSNRASGVPDRFSGSGSGTDFTLKISRVEAEDVGVYYCMQALQTPLTFGGGTKVEIKR
In the case of B8, the equilibrium dissociation constant (Kd) came out at 1.84 nM in test [1], 1.36 nM in test [2] and 4.8 nM in test [4]. In addition, the binding result in test [3] and in test [5] was “no binding (tested: 1000 nM)” in each case.

B9: Antibody E6 (antibody, human IgG1, kappa, L234A L235A, V domains shown)
VH: QVQLQESGPGLVRPSETLSLTCTVSGGSIRNYYWSWIRQPPGKGLEWIGFIYYNGRTFYNPSLKSRVTISLDKSKNQFSLKMTSVTAADTAVYYCARVRAYSGIGLDGTDVWGQGTTVTVSS
VL: DIVMTQSPLSLPVTPGEPASISCKSSQSLLYSNGYAYLDWYLQRPGQSPQLLIYLGSNRASGVPDRFSGSGSGTDFTLKISRVEAEDVGVYYCMQALQTPLTFGGGTKVEIKR
For the molecule B9, the Kd in test [1] came out at 1.03 nM; in test [2], 0.875 nM; in test [4] it was 2.72 nM. Besides, the binding result in test [3] and in test [5] was “no binding (tested: 1000 nM)” in each case.

B10: Antibody E12 (antibody, human IgG1, kappa, L234A L235A, V domains shown)
VH: QVQLQESGPGLVRPSETLSLTCTVSGGSIRNYYWSWIRQPPGKGLEWIGFIYYNGRTFYNPSLKSRVTISLDMSKNQFSLKMTSVTAADTAVYYCARVRAYSGIGLDGTDVWGQGTTVTVSS
VL: DIVMTQSPLSLPVTPGEPASISCKSSQSLLYSNAYNYLDWYLQRPGQSPQLLIYLGSNRASGVPDRFSGSGSGTDFTLKISRVEAEDVGVYYCMQALQTPLTFGGGTKVEIKR
As to B10, the Kd in test [1] is 1.67 nM; in test [2] it was 1.26 nM; in test [3], 1670 nM; in test [4], 3.43 nM. For the same molecule, the binding result in test [5] is reported as “no binding (tested: 1000 nM)”.

B11: Antibody E15 (antibody, human IgG1, kappa, L234A L235A, V domains shown)
VH: QVQLQESGPGLVRPSETLSLTCTVSGGSIRNYYWSWIRQPPGKGLEWIGFIYYTGRTFYNPSLKSRVTISLDMSINQFSLKMTSVTAADTAVYYCARVRAYSGIGLDGTDVWGQGTTVTVSS
VL: DIVMTQSPLSLPVTPGEPASISCKSSQSLLYSNGYAYLDWYLQRPGQSPQLLIYLGSNRASGVPDRFSGSGSGTDFTLKISRVEAEDVGVYYCMQALQTPLTFGGGTKVEIKR
For B11, the dissociation constant (Kd) in test [1] turned out to be 1.91 nM; in test [2], 0.737 nM; in test [4], 4.56 nM. The binding result in test [3] and in test [5] was “no binding (tested: 1000 nM)” in each case.

One may read the Kd as the constant that tells how readily two partners part at equilibrium.
